Measurements from PMC2882879 (Biochemistry, 2010).
Values belong to the molecule of their own block, whether it stands above or below them.

Key:
[1] = target: LRP6 (Homo sapiens) (UniProt O75581); assay: solid phase enzyme-linked binding assay; conditions: cited from earlier work
[2] = target: human low-density lipoprotein receptor-related protein-5 on stably transfected ldl-7 (LDLR-deficient CHO) … (human, UniProt O75197 32-1615); assay: radioligand binding
human low-density lipoprotein receptor-related protein-5 on stably transfected ldl-7 (LDLR-deficient CHO) …, sequence (O75197 32-1615): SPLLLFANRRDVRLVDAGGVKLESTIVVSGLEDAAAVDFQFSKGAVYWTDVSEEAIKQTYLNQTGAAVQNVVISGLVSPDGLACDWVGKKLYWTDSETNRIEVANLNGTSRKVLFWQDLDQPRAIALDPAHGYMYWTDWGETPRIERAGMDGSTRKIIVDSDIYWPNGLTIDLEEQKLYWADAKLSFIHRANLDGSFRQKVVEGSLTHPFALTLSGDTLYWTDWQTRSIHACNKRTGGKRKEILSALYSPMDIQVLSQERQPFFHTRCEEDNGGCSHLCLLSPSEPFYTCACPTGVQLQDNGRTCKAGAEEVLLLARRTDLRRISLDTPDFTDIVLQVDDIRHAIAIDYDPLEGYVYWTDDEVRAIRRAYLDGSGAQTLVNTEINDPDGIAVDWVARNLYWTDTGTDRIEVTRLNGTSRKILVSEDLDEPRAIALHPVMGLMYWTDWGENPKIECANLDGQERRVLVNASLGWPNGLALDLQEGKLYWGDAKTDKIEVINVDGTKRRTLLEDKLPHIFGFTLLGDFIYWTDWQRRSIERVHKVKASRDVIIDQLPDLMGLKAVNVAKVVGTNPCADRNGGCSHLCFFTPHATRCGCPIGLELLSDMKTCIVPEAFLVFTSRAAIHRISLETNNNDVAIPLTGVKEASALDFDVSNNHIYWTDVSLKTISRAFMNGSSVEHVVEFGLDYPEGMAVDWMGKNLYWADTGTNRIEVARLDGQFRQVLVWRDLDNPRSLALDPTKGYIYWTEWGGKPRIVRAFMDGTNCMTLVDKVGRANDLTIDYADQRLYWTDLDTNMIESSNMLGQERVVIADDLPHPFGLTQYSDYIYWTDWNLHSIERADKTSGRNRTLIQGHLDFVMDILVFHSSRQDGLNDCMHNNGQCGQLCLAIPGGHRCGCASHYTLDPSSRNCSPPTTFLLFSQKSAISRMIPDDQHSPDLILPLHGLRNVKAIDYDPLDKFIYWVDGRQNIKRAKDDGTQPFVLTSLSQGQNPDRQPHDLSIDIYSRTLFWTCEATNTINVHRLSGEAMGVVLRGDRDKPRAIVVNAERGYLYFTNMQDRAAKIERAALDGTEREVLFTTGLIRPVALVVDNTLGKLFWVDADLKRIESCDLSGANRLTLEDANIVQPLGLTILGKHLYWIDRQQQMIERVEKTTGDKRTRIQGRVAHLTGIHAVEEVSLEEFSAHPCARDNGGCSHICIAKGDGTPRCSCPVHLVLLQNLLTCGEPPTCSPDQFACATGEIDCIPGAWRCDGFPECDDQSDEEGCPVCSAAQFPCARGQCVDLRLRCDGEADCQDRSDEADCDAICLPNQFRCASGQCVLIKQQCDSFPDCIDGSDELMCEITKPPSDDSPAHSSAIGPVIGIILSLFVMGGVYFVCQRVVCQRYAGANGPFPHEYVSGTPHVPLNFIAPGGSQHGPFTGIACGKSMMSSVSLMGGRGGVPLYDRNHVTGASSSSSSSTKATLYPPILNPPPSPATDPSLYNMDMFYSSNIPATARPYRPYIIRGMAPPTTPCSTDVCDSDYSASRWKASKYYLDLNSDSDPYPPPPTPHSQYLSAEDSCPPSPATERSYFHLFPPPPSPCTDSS

LRP6 (Homo sapiens), sequence (O75581 20-1370): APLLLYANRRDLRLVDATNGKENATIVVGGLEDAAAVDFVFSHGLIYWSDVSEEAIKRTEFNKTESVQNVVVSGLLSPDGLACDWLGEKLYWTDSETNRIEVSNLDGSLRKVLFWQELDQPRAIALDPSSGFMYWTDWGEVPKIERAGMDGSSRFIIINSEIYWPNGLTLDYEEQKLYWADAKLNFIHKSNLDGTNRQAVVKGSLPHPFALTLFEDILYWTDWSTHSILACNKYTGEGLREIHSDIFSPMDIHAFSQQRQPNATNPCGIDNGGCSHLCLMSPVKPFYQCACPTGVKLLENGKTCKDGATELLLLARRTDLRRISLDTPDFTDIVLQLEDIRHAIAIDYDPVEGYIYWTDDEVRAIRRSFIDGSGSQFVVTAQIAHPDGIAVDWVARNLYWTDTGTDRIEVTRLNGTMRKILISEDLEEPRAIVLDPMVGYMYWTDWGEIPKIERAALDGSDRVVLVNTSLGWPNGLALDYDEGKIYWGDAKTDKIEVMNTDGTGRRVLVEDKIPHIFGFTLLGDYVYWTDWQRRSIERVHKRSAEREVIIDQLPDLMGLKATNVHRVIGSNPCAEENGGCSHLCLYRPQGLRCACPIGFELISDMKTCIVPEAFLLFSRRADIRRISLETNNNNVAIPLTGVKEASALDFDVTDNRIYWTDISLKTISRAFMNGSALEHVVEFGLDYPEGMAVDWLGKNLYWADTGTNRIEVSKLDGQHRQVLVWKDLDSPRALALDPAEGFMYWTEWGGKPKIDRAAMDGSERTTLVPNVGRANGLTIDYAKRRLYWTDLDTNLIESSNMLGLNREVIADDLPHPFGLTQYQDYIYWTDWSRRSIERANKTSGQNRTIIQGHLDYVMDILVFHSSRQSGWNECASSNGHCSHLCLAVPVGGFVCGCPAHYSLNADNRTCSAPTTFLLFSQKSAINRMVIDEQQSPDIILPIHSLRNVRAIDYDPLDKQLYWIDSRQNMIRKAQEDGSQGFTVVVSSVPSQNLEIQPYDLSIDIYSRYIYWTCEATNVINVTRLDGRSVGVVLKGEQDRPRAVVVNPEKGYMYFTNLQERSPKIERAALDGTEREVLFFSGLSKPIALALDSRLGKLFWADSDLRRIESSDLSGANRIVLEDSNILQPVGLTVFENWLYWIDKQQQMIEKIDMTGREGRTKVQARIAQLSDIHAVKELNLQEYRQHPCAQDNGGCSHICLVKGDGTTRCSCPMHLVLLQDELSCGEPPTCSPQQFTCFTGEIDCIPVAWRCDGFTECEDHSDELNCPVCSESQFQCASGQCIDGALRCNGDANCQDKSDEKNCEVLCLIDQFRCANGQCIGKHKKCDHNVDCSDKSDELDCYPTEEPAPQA

Molecule: Rspo1 (from UniProt Q2MKA7)
Kd [1]: 1.2 nM

Kd [2]: 3.3 nM
B1: recombinant mouse Mesd protein (natural protein, UniProt Q9ERE7 30-224, looked up)
chain: ADTPGEATPPPRKKKDIRDYNDADMARLLEQWEKDDDIEEGDLPEHKRPSAPIDFSKLDPGKPESILKMTKKGKTLMMFVTVSGNPTEKETEEITSLWQGSLFNANYDVQRFIVGSDRAIFMLRDGSYAWEIKDFLVSQDRCAEVTLEGQMYPGKGGGSKEKNKTKPEKAKKKEGDPKPRASKEDNRAGSRREDL
modifications: 125I-iodinated (IODO-GEN method) where used as radioligand; unlabelled where used as competitor
